± gives the standard deviation of the averaged measurements.
B1: library; a variant is named by its letters at N, in order (parent)
chain: GCUGUCACCGGUGUAUUACCCUAGUGGUCGACCGGUCUGAUGAGUCUNNNNNNAGACGAAACAGC

Tests used:
[1] = variants of: B1; assay: FACS-Seq fitted mean relative fluorescence mCherry/BFP without ligand (log10 relative fluorescence); ligand: hypoxanthine (xanthine aptamer); higher = higher reporter protein expression; settings: HEK293T, ligand present: no
Outline: (§1)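 Sorting into 6 bins by mCherry/BFP followed 48 h of incubation with or without ligand. The cells were enriched HEK293T libraries lentivirally bearing an mCherry reporter with the ribozyme switch and an EF1α-BFP marker, and bin genomic DNA was PCR-amplified, barcoded and sequenced on MiSeq. Fluorescence is the fitted normal mean of the bin counts. Means were fitted on log10(mCherry/BFP), scaled to five spiked-in control ribozymes.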

[2] = variants of: B1; assay: normalized RNA/DNA level with ligand (relative to sTRSVctl = 100) (log10 (% of sTRSVctl)); ligand: hypoxanthine (xanthine aptamer); higher = less ribozyme self-cleavage, higher mRNA level; settings: ligand concentration (+) RNA-Seq: 5 mM, HEK293T, reporter: mCherry (pCS4076), ligand present: yes
Outline: (§2)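 Library plasmids encoding reporter-linked ribozyme switches (mCherry, or eGFP for some folinic acid experiments) were transfected into HEK293T at 4 µg per 6-well well. Ligand, when used, was added 1 h before transfection. Total RNA was extracted with EDTA 72 h later, then reverse-transcribed, amplified, barcoded and sequenced. RNA level was RNA reads over DNA reads, divided by a spiked-in non-cleaving control (or the top 25 sequences), ×100, log10; only sequences with ≥100 DNA reads were kept.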

[3] = variants of: B1; assay: normalized RNA/DNA level without ligand (relative to sTRSVctl = 100) (log10 (% of sTRSVctl)); ligand: hypoxanthine (xanthine aptamer); higher = less ribozyme self-cleavage, higher mRNA level; settings: HEK293T, reporter: mCherry (pCS4076), ligand present: no
Outline: as §2

[4] = variants of: B1; assay: FACS-Seq fitted mean relative fluorescence mCherry/BFP with ligand (log10 relative fluorescence); ligand: hypoxanthine (xanthine aptamer); ligand concentration (+) FACS-Seq: 5 mM; higher = higher reporter protein expression; settings: HEK293T, ligand present: yes
Outline: as §1

Variant | FACS-Seq fitted mean (log10) [1] | normalized RNA/DNA level with ligand (log10) [2] | normalized RNA/DNA level without ligand (log10) [3] | FACS-Seq fitted mean (log10) [4]
GCUGUCACCGGUGUAUUACCCUAGUGGUCGACCGGUCUGAUGAGUCUGGACGGAGACGAAACAGC | 0.346 ± 0.049 | 1.81 ± 0.035 | 1.42 ± 0.016 | 0.584 ± 0.054
GCUGUCACCGGUGUAUUACCCUAGUGGUCGACCGGUCUGAUGAGUCUGGACGAAGACGAAACAGC | 0.478 ± 0.053 | 1.904 ± 0.015 | 1.64 ± 0.031 | 0.693 ± 0.025
GCUGUCACCGGUGUAUUACCCUAGUGGUCGACCGGUCUGAUGAGUCUUGACACAGACGAAACAGC | 0.161 ± 0.17 | 1.93 ± 0.03 | 1.84 ± 0.064 | 0.132 ± 0.059
GCUGUCACCGGUGUAUUACCCUAGUGGUCGACCGGUCUGAUGAGUCUUGACAGAGACGAAACAGC | 0.5894 ± 0.0055 | 1.93 ± 0.043 | 1.66 ± 0.064 | 0.556 ± 0.022
GCUGUCACCGGUGUAUUACCCUAGUGGUCGACCGGUCUGAUGAGUCUGGACCGAGACGAAACAGC | 0.219 ± 0.056 | 1.97 ± 0.03 | 1.79 ± 0.0033 | 0.447 ± 0.027
GCUGUCACCGGUGUAUUACCCUAGUGGUCGACCGGUCUGAUGAGUCUCGACACAGACGAAACAGC | -0.0307 ± 0.0086 | 1.938 ± 0.0063 | 1.75 ± 0.039 | 0.154 ± 0.057
GCUGUCACCGGUGUAUUACCCUAGUGGUCGACCGGUCUGAUGAGUCUAGACCCAGACGAAACAGC | 0.552 ± 0.035 | 1.94 ± 0.0097 | 1.92 ± 0.02 | 0.516 ± 0.11
GCUGUCACCGGUGUAUUACCCUAGUGGUCGACCGGUCUGAUGAGUCUGGACACAGACGAAACAGC | 0.562 ± 0.091 | 1.9 ± 0.097 | 1.71 ± 0.022 | 0.59 ± 0.014
GCUGUCACCGGUGUAUUACCCUAGUGGUCGACCGGUCUGAUGAGUCUAGACGGAGACGAAACAGC | 0.689 ± 0.072 | 1.81 ± 0.044 | 1.3085 ± 0.0012 | 0.834 ± 0.073
GCUGUCACCGGUGUAUUACCCUAGUGGUCGACCGGUCUGAUGAGUCUAGACGUAGACGAAACAGC | 0.722 ± 0.019 | 1.9 ± 0.043 | 1.59 ± 0.03 | 0.696 ± 0.067
GCUGUCACCGGUGUAUUACCCUAGUGGUCGACCGGUCUGAUGAGUCUAGACGAAGACGAAACAGC | 0.525 ± 0.066 | 1.95 ± 0.049 | 1.62 ± 0.025 | 0.546 ± 0.049
GCUGUCACCGGUGUAUUACCCUAGUGGUCGACCGGUCUGAUGAGUCUCGACGGAGACGAAACAGC | 0.267 ± 0.083 | 1.83 ± 0.035 | 1.413 ± 0.0057 | 0.596 ± 0.078
GCUGUCACCGGUGUAUUACCCUAGUGGUCGACCGGUCUGAUGAGUCUCGACGCAGACGAAACAGC | -0.246 ± 0.0073 | 1.919 ± 0.0071 | 1.87 ± 0.019 | -0.157 ± 0.067
GCUGUCACCGGUGUAUUACCCUAGUGGUCGACCGGUCUGAUGAGUCUAGACAUAGACGAAACAGC | 0.502 ± 0.023 | 1.907 ± 0.0038 | 1.755 ± 0.0087 | 0.538 ± 0.036
GCUGUCACCGGUGUAUUACCCUAGUGGUCGACCGGUCUGAUGAGUCUAGACAAAGACGAAACAGC | 0.177 ± 0.019 | 1.89 ± 0.049 | 1.74 ± 0.053 | 0.0293 ± 0.022
GCUGUCACCGGUGUAUUACCCUAGUGGUCGACCGGUCUGAUGAGUCUAGACAGAGACGAAACAGC | 0.418 ± 0.037 | 1.82 ± 0.053 | 1.391 ± 0.011 | 0.565 ± 0.052
GCUGUCACCGGUGUAUUACCCUAGUGGUCGACCGGUCUGAUGAGUCUUGACGUAGACGAAACAGC | -0.0405 ± 0.16 | 1.91 ± 0.021 | 1.57 ± 0.064 | 0.226 ± 0.05
GCUGUCACCGGUGUAUUACCCUAGUGGUCGACCGGUCUGAUGAGUCUUGACGGAGACGAAACAGC | 0.484 ± 0.018 | 1.9 ± 0.022 | 1.486 ± 0.01 | 0.646 ± 0.032
GCUGUCACCGGUGUAUUACCCUAGUGGUCGACCGGUCUGAUGAGUCUUGACGAAGACGAAACAGC | 0.285 ± 0.037 | 1.94 ± 0.023 | 1.581 ± 0.0051 | 0.593 ± 0.023
GCUGUCACCGGUGUAUUACCCUAGUGGUCGACCGGUCUGAUGAGUCUUGACUCAGACGAAACAGC | 0.621 ± 0.043 | 2.01 ± 0.036 | 1.97 ± 0.033 | 0.678 ± 0.044
GCUGUCACCGGUGUAUUACCCUAGUGGUCGACCGGUCUGAUGAGUCUUGACUAAGACGAAACAGC | 0.629 ± 0.091 | 1.953 ± 0.017 | 1.86 ± 0.029 | 0.141 ± 0.079

Source: the supplement of paper PMC6757056
